Experiments:
[1] = target: (Bs)MifM-stalled RNC (B. subtilis | B. subtilis (endogenous in the B. subtilis 168 extract)) (UniProt Q7WY64); test: cryo-EM structure; (Bs)SRP pre-incubated with GMPPNP, tenfold molar excess over MifM-stalled RNCs, 10 min at room temperature
[2] = target: (Bs)MifM-stalled RNC (B. subtilis | B. subtilis (endogenous in the B. subtilis 168 extract)) (UniProt Q7WY64); test: cryo-EM structure; (Bs)SRP pre-incubated with pppGpp, tenfold molar excess over MifM-stalled RNCs, 10 min at room temperature

Substance “recombinant (Bs)SRP (Ffh and 6S RNA) (from UniProt P37105 1-446) (natural protein)” has a percent of the particles with stably bound SRP (% of the particles) [1] of 24 and a percent of the particles with stably bound SRP (% of the particles) [2] of 38.

Reference: publication PMC8881573, “Inhibition of SRP-dependent protein secretion by the bacterial alarmone (p)ppGpp” (Nature Communications, 2022)
